First the molecules themselves.
B1: HDV Ribozyme (parent)
chain: GGCCGGCAUGGUCCCAGCCUCCUCGCUGGCGCCGGCUGGGCAACAUUCCGAGGGGACCGUCCCCUCGGUAAUGGCGAAUGGGACCCA

The results in this text go back to the RNAGym collection of RNA variant scans (doi:10.7554/elife.80360).

Variants of B1 are the subject of this data set. Description: self-cleavage, relative activity (ratio to wild type); higher = more cleavage; co-transcriptional.
Regarding GGCCGGGAUGGUCCCAGCCUCCUCGCUGGCGCCGGCUGGGCAACAUUCCGAGGGGACCGUCCCCUCGGUAAUGGCGAAUGGGCCCCA [C7G A83C], the self-cleavage was determined as 0.175.

As for GGCCGGCAUGGUCCCAGCCUCAUCGCUGGCGCCGGCUGGGCAACAUUCCGAGGGGACCGUACCCUCGGUAAUGGCGAAUGGGACCCA [C22A C61A], the self-cleavage is 0.415.

For the variant GGCCGGCAUGGUCCCAGCCUCCUCGCUGGCGCCGGCUGUGCAACAUUCCGAGGGGACCGUCCCCUCGGUAACGGCGAAUGGGACCCA [G39U U72C], the self-cleavage is 0.0573.

For GGCCGGCAUGGUCCCAGCCUACUCGCUGGCGCCGGCUGAGCAACAUUCCGAGGGGACCGUCCCCUCGGUAAUGGCGAAUGGGACCCA [C21A G39A], the self-cleavage amounted to 0.0277. The figure for GGCCGGCAUGGUCCCAGCCUCCCCGCUGGCGCCGGCUGGGUAACAUUCCGAGGGGACCGUCCCCUCGGUAAUGGCGAAUGGGACCCA [U23C C41U] is 0.959; for GGCCGGCAUGGUCCCAGCCUCCUCGCUUGCGCCGGCUGGGCAACAUUCCGAGGGGACCGCCCCCUCGGUAAUGGCGAAUGGGACCCA [G28U U60C] it is 0.0755; for GGCCGGCAUGGUCCCAGCCUCCUCGCGGGCGCCGGCUGGGCAACAUUCCGAGGGGACCGUCGCCUCGGUAAUGGCGAAUGGGACCCA [U27G C62G] it is 1.14.

For the variant GGCCGGCAUGGUCCCAGCCUCCUCGCUGGCGCCGGCUGGGCAACAUUCCGAGGGGACCGUCCCCUCGGUAAUGGCAAUUGGGACCCA [G76A A78U], the self-cleavage came to 0.673. The figure for GGCCGGCAUUGUCCCAGCCUCCUCGCUGGCGCCGGCUGGGCAACAUUCCGAGGGGACCGUCCCCUCGGUAAUGGCGAAUAGGACCCA [G10U G80A] is 0.131; for GGCCGGCAUGGUUCCAGCCUCCUCGCUGGCGCCGGCUGGGGAACAUUCCGAGGGGACCGUCCCCUCGGUAAUGGCGAAUGGGACCCA [C13U C41G] it is 0.739; for GGCCGGCAUGGUCCCAGCCUCCUCGCUGCCGCCGGCUGGGCAACAUUCCGAGGGGACCGUCCCCUCGGUAAUGGCGAAUGGGAACCA [G29C C84A] it is 0.0831. As for GGCCGGCAUGGUCCCAGCCUCCUCGCUGGCGCUGGCUGGGCAACAUUCCUAGGGGACCGUCCCCUCGGUAAUGGCGAAUGGGACCCA [C33U G50U], the self-cleavage was found to be 0.92. The figure for GGCCGGCAUGGUACCAGCCUCCUCGCUGGCGCCGGCUGGGCAACAUUGCGAGGGGACCGUCCCCUCGGUAAUGGCGAAUGGGACCCA [C13A C48G] is 0.138. In the case of GGCCGGCAUGGUCCCAGCCUCGUCGCUGGCGCCGGCUGGGCAACAUUCCGAGGGGACCGUCCCCUCGGUAAUGGCGAAUGGGACACA [C22G C85A], the self-cleavage is 0. As to GGCCGGCAUGAUCCCAGCCUCCUCGCUGGCGCCGGCUGGGCAACAUUCCGAGGGGACCGUCCCCUCGGUAGUGGCGAAUGGGACCCA [G11A A71G], the self-cleavage turned out to be 0.554. Take GGCCGGCAUGGUCCCAGCCUCCACGCUGGCGCCGGCUGGGCAACAUUCCGAGGGGCCCGUCCCCUCGGUAAUGGCGAAUGGGACCCA [U23A A56C]: the self-cleavage was found to be 0.929. In the case of GGCCGGCAUGGUCCCAGCCUCCUCGCUGGCGCCGGCUGGGCAACAUUCCGAUGGGACCGUCCCCUCGGUAAUGGCGAAUGGGACCAA [G52U C86A] it was 0.926. On to GGCCGGCAUGGUCCCAGCCUCCUCGCUGGCGCCGGCUGGGCAACAUUCCGACGGGACCGUCCCCUCGGUAAUGGCGACUGGGACCCA [G52C A78C], for which the self-cleavage turned out to be 0.0723.

For the variant GGCCGGCAUGGUCCCAGCCUCCUCGCUGGCGCCGGCUGGGCAACAUUCCGAGGGGACCGUCCCCUCGGUAAUCGCGAAUGGGACCCU [G73C A87U], the self-cleavage stood at 0.626.

Take GGCCGGCAUGGUCCCAGCCUCCUCGCGGGCGCCGGCUGGGCAACAUUCCGAGGGGACCGUCCCCUCGGUAAUGGCGAAUGGGACACA [U27G C85A]: the self-cleavage amounted to 0.831. Take GGCCGGCAUGGUCCCAGCCUCCUCGCUGGCGCCGGCGGGGCAACAUUCCGAGGGGACCGUCCCCUCGGUAAUGGCGAAUGGGACCCG [U37G A87G]: the self-cleavage is 0.0455. As to GGCCGGCAUGGUCCCAGCCUCCUCGCUGGCGCCGGCUGGGCAACAUUCCGAGGGCACCUUCCCCUCGGUAAUGGCGAAUGGGACCCA [G55C G59U], the self-cleavage was 0.87. Consider GGCCGGCAUGGUCCCAGCCACCUCGCUGGUGCCGGCUGGGCAACAUUCCGAGGGGACCGUCCCCUCGGUAAUGGCGAAUGGGACCCA [U20A C30U], for which the self-cleavage turned out to be 0.0415. Take GGCCGGCAUGGUCCCAGCCUCCUCGCUGGCGCCGGCUCGGCAACAUUCCGAGGGGACCAUCCCCUCGGUAAUGGCGAAUGGGACCCA [G38C G59A]: the self-cleavage stood at 0.199. For the variant GGCCGGCAUGGUCCCAGCCUCCUCGCUGGCGCCGGCUGGGCAACAUUCCGAGGGGACCGUCCCCUCGGUAAUGGCCAAUGGGAACCA [G76C C84A], the self-cleavage turned out to be 1.19. For the variant GGCCGGCAUGGUCCCAGCCUCCUCGCUGGCGCCGGCUGGGCGACAUUCCGAGGGGACCGUCCCCGCGGUAAUGGCGAAUGGGACCCA [A42G U65G], the self-cleavage is 0.536. With GGCCGGCAUGGUCCCAGCCUCCUCGCUGGCGGCGGCUGGGCCACAUUCCGAGGGGACCGUCCCCUCGGUAAUGGCGAAUGGGACCCA [C32G A42C], the self-cleavage was 0.0678. GGCCGUCAUGGUCCCAGCCUCCUCGCUGGCGCCGGCUGGGCAACAUUCCGAGGGGACCGUCCCCUCGGUAAUGGCGAAUGGGAGCCA [G6U C84G]: the self-cleavage was 0.0923. The figure for GGCGGGCAUGGUCCCAGCCUCCUCGCUGGCGCCGGCUGGGCAACAUUCUGAGGGGACCGUCCCCUCGGUAAUGGCGAAUGGGACCCA [C4G C49U] is 0.612; for GGCCGGCAUGGUCCCAGCCUCCUCGCUGGCGCCGGCUGGGCAACAUUCCGAGGGGAUCGUCCCCUCGCUAAUGGCGAAUGGGACCCA [C57U G68C] it is 0.85. For GGCCGGCAUGGUCCCAGCCUCCGCGCUGGCGCCGGCUGGGCAACAUUCCGAGCGGACCGUCCCCUCGGUAAUGGCGAAUGGGACCCA [U23G G53C], the self-cleavage was 0.759. Regarding GGCCGGCAUGGUCCCCGCCUCCUUGCUGGCGCCGGCUGGGCAACAUUCCGAGGGGACCGUCCCCUCGGUAAUGGCGAAUGGGACCCA [A16C C24U], the self-cleavage was 0.287.
